Results on 14 molecules are retold here after US11702475B2, “Cysteine engineered fibronectin type III domain binding molecules” (Janssen Biotech, Inc., priority 2013, dated 2023).

Numbering of substitutions follows the chain as printed. Names may count otherwise. “And” between values parts separate entries of the source, which are not always exact repeats. Equal values may be shown once. Read-outs that look alike come from different tables or passages of the source.

The nature of data set [1]: Analytical size exclusion chromatography (percent monomer). As to conditions: NEM-conjugated cysteine variants; SEC, Abs280 monomer region 5.5-6 minutes vs oligomer region 4-5.3 minutes. The format is physicochemical. As for the experimental part:
Size exclusion chromatography was used to determine the aggregation state of the FN3 domains binding EGFR. Aliquots (10 μL) of each purified FN3 domain were injected onto a Superdex 75 5/150 column (GE Healthcare) at a flow rate of 0.3 mL/min in a mobile phase of PBS pH 7.4. Elution from the column was monitored by absorbance at 280 nm.
The percent monomer for each protein was determined by integrating the Abs280 signal and comparing the peak in the monomer region (5.5-6 minutes) to the peaks in the oligomer region (4-5.3 minutes).
(SEC sorts molecules by how far they enter the pores of the column.)

The test system of data set [2] is EGFR-overexpressing human tumor cell line H1573. Put plainly: Cytotoxicity assay in H1573 cells. The format is cell-based. As to conditions: for potency relative to the parent conjugate (in words): VC-MMAF conjugates. As for the experimental part: Cell killing was assessed by measuring viability of the EGFR-overexpressing human tumor cell line H1573 following exposure to the cysteine variant-cytotoxin conjugates. Cells were plated in black-well, clear bottomed, tissue culture-treated plates (Falcon 353219) at 7000/well in 100 μL/well of phenol red free RPMI media (Gibco 11835-030) with 5% fetal bovine serum (Gibco). Cells were allowed to attach overnight at 37° C. in a humidified 5% CO2 atmosphere. Medium was aspirated from 96-well plate and cells were treated with 50 uL of fresh media and 50 uL of 2× inhibitor made up in fresh media. Cell viability was determined by an endpoint assay with Cell TiterGlo (Promega) at 70 hours. IC50 values were determined by fitting data to the equation for a sigmoidal dose response with variable slope using GraphPad Prism 5 (GraphPad Software). Table 11 reports IC50 values obtained from analysis of the CellTiter Glo data.
Conjugates consisting of ECB147 cysteine variants, 83v2-cys, or Tencon-cys linked to a cytotoxic tubulin inhibitor from the auristatin family (FIG. 2) were tested for target-dependent cytotoxicity in cancer cells. The inhibitor was linked to the cysteine-containing protein via a non-cleavable PEG4 linker or an enzyme-cleavable valine-citrulline or valine-lysine linker. Cell killing was assessed by measuring viability of the EGFR-overexpressing human tumor cell lines H1573 and A431 as well as the EGFR-negative tumor cell line MDA-MB-435 following exposure to the protein-cytotoxin conjugates using the procedure described in Example 4.

A short description of data set [3]: Thermal stability of cysteine-NEM conjugates by DSC. It counts as physicochemical. As to conditions: for First Scan Tm: DSC 25-100 °C, 1 °C per minute; for Second Scan Tm: second identical scan. As for the experimental part: The thermal stability of cysteine-NEM conjugates was assessed by differential scanning calorimetry (DSC). The only the conjugates tested were those determined to express at high levels, conjugate efficiently, and retain EGFR binding. Additionally, cysteine variants within the BC and FG loops were excluded. Stability data was generated by heating a 400 μL aliquot of the variant from 25° C. to 100° C. at a scan rate of 1° C. per minute in a VP-DSC instrument (MicroCal). A second identical scan was completed on the sample in order to assess the reversibility of thermal folding/unfolding. Data was fitted to a 2-state unfolding model in order to calculate the melting temperature (Table 10).

[4] abbreviates: cysteine variants conjugated to VC-MMAF, Cell TiterGlo at 70 hours, read-out: IC50.

B1: L32C: cysteine variant of P54AR4-83v2; NEM and VC-MMAF conjugates (conjugate)
chain: LPAPKNLVVSEVTEDSARLSWDDPWAFYESFCIQYQESEKVGEAIVLTVPGSERSYDLTGLKPGTEYTVSIYGVHNVYKDTNMRGLPLSAIFTT
modifications: left off: small tags and cut ends
notes: cysteine variant of P54AR4-83v2; NEM and VC-MMAF conjugates
In data set [1], B1 came in with a Percent monomer of 100%. Further, the IC50 (as a rule, the concentration that gives 50% inhibition) in data set [2] (setting [4]) amounted to 2.92 nM. Also, in data set [3], the “First Scan Tm” value amounted to 71 °C and the “Second Scan Tm” value is 70 °C.

B2: N6C: cysteine variant of P54AR4-83v2 (printed SEQ ID NOS: 210 and 248); NEM and VC-MMAF conjugates (conjugate)
chain: MLPAPKCLVVSEVTEDSARLSWDDPWAFYESFLIQYQESEKVGEAIVLTVPGSERSYDLTGLKPGTEYTVSIYGVHNVYKDTNMRGLPLSAIFTT
modifications: NEM or vcMMAF conjugate; EGFR binding FN3 domain
notes: NEM and VC-MMAF conjugates
Regarding B2, the Percent monomer in data set [1] stood at 94%. For the same molecule, the “potency relative to the parent conjugate (in words)” value in data set [2] is given as “over two times more potent than the parent”. Besides, the IC50 in data set [2] (setting [4]) was 0.16 nM. Besides, in data set [3], the “First Scan Tm” value was found to be 71 °C and the “Second Scan Tm” value was determined as 70 °C.

B3: S20C: cysteine variant of P54AR4-83v2 (SEQ ID NOS: 195 and 233); NEM and VC-MMAF conjugates (conjugate)
chain: B2 chain with C7N, S21C
modifications: NEM or vcMMAF conjugate; EGFR binding FN3 domain
notes: NEM and VC-MMAF conjugates
With B3, the Percent monomer in data set [1] is 94%. In addition, the half-inhibitory concentration (IC50) in data set [2] (setting [4]) was 0.36 nM. Also, in data set [3], the “First Scan Tm” value was found to be 70 °C and the “Second Scan Tm” value amounted to 70 °C.

B4: S30C: cysteine variant of P54AR4-83v2 (SEQ ID NOS: 196 and 234); NEM and VC-MMAF conjugates (conjugate)
chain: B2 chain with C7N, S31C
modifications: NEM or vcMMAF conjugate; EGFR binding FN3 domain
notes: NEM and VC-MMAF conjugates
On to B4, for which the Percent monomer in data set [1] is 94%. The IC50 in data set [2] (setting [4]) was 0.78 nM. In addition, in data set [3], the “First Scan Tm” value came to 71 °C and the “Second Scan Tm” value was 71 °C.

B5: S10C: cysteine variant of P54AR4-83v2 (SEQ ID NOS: 190 and 228); NEM and VC-MMAF conjugates (conjugate)
chain: B2 chain with C7N, S11C
modifications: NEM or vcMMAF conjugate; EGFR binding FN3 domain
notes: NEM and VC-MMAF conjugates
With B5, the Percent monomer in data set [1] came to 80%. Moreover, the 50% inhibitory concentration (IC50) in data set [2] (setting [4]) is 0.43 nM. For the same molecule, in data set [3], the “First Scan Tm” value was 68 °C and the “Second Scan Tm” value was 68 °C.

B6: D15C: cysteine variant of P54AR4-83v2 (SEQ ID NOS: 193 and 231); NEM and VC-MMAF conjugates (conjugate)
chain: B2 chain with C7N, D16C
modifications: NEM or vcMMAF conjugate; EGFR binding FN3 domain
notes: NEM and VC-MMAF conjugates
B6: the Percent monomer in data set [1] was found to be 97%. Further, in data set [2] (setting [4]), the IC50 turned out to be 0.33 nM. For the same molecule, in data set [3], the “First Scan Tm” value is 73 °C and the “Second Scan Tm” value is 73 °C.

B7: Q34C: cysteine variant of P54AR4-83v2 (SEQ ID NOS: 197 and 235); NEM and VC-MMAF conjugates (conjugate)
chain: B2 chain with C7N, Q35C
modifications: NEM or vcMMAF conjugate; EGFR binding FN3 domain
notes: NEM and VC-MMAF conjugates
With B7, the Percent monomer in data set [1] is given as 97%. For the same molecule, the IC50 in data set [2] (setting [4]) came to 0.74 nM. Further, in data set [3], the “First Scan Tm” value was 75 °C and the “Second Scan Tm” value came to 74 °C.

B8: E14C: cysteine variant of P54AR4-83v2 (SEQ ID NOS: 192 and 230); NEM and VC-MMAF conjugates (conjugate)
chain: B2 chain with C7N, E15C
modifications: NEM or vcMMAF conjugate; EGFR binding FN3 domain
notes: NEM and VC-MMAF conjugates
B8 came in with a Percent monomer in data set [1] of 96%. Also, the half-maximal inhibitory concentration (IC50) in data set [2] (setting [4]) was determined as 0.34 nM. In addition, in data set [3], the “First Scan Tm” value was found to be 70 °C and the “Second Scan Tm” value was 71 °C.

B9: S16C: cysteine variant of P54AR4-83v2 (SEQ ID NOS: 194 and 232); NEM and VC-MMAF conjugates (conjugate)
chain: B2 chain with C7N, S17C
modifications: NEM or vcMMAF conjugate; EGFR binding FN3 domain
notes: NEM and VC-MMAF conjugates
Take B9: the Percent monomer in data set [1] is on record as 75%. In addition, in data set [2] (setting [4]), the 50% inhibitory concentration (IC50) is 0.75 nM. Moreover, in data set [3], the “First Scan Tm” value turned out to be 68 °C and the “Second Scan Tm” value is 68 °C.

B10: T93C: cysteine variant of P54AR4-83v2 (SEQ ID NOS: 216 and 254); NEM and VC-MMAF conjugates (conjugate)
chain: B2 chain with C7N, T94C
modifications: NEM or vcMMAF conjugate; EGFR binding FN3 domain
notes: NEM and VC-MMAF conjugates
In the case of B10, the Percent monomer in data set [1] stood at 100%. In addition, the “potency relative to the parent conjugate (in words)” value in data set [2] was “over two times more potent than the parent”. The IC50 in data set [2] (setting [4]) is 0.2 nM. Moreover, in data set [3], the “First Scan Tm” value came out at 69 °C and the “Second Scan Tm” value came out at 69 °C.

B11: E11C: cysteine variant of P54AR4-83v2 (SEQ ID NOS: 191 and 229); NEM and VC-MMAF conjugates (conjugate)
chain: B2 chain with C7N, E12C
modifications: NEM or vcMMAF conjugate; EGFR binding FN3 domain
notes: NEM and VC-MMAF conjugates
B11 displayed a Percent monomer in data set [1] of 100%. Besides, the IC50 in data set [2] (setting [4]) amounted to 0.94 nM. In data set [3], the “First Scan Tm” value stood at 71 °C and the “Second Scan Tm” value stood at 72 °C.

B12: V8C: cysteine variant of P54AR4-83v2 (SEQ ID NOS: 189 and 227); NEM and VC-MMAF conjugates (conjugate)
chain: B2 chain with C7N, V9C
modifications: NEM or vcMMAF conjugate; EGFR binding FN3 domain
notes: NEM and VC-MMAF conjugates
The molecule B12 gave a Percent monomer in data set [1] of 91%. In addition, the IC50 in data set [2] (setting [4]) was determined as 0.35 nM. Moreover, in data set [3], the “First Scan Tm” value amounted to 69 °C and the “Second Scan Tm” value was 69 °C.

B13: E53C: cysteine variant of P54AR4-83v2 (SEQ ID NOS: 204 and 242); NEM and VC-MMAF conjugates (conjugate)
chain: B2 chain with C7N, E54C
modifications: NEM or vcMMAF conjugate; EGFR binding FN3 domain
notes: NEM and VC-MMAF conjugates
Consider B13, for which, in data set [1], the Percent monomer was determined as 97%. Further, in data set [2], the “potency relative to the parent conjugate (in words)” value is “over two times more potent than the parent”. In data set [2] (setting [4]), the IC50 amounted to 0.09 nM. Moreover, in data set [3], the “First Scan Tm” value came to 76 °C and the “Second Scan Tm” value worked out at 75 °C.

B14: 83v2His6-cys: P54AR4-83v2 parent with C-terminal cysteine (SEQ ID NOs: 217 and 255); NEM and vcMMAF conjugates (conjugate)
chain: MLPAPKNLVVSEVTEDSARLSWDDPWAFYESFLIQYQESEKVGEAIVLTVPGSERSYDLTGLKPGTEYTVSIYGVHNVYKDTNMRGLPLSAIFTTGGHHHHHHC
modifications: His6 tag, C-terminal Cys; NEM or vcMMAF conjugate; EGFR binding FN3 domain
notes: NEM and vcMMAF conjugates
For the molecule B14, the Percent monomer in data set [1] worked out at 97%. Besides, the IC50 in data set [2] (setting [4]) is 0.61 nM and 0.79 nM; in data set [2] (vcMMAF conjugate, read-out: average IC50 of two replicates), 0.7 nM. Also, the “First Scan Tm” value in data set [3] is 71 °C. For the same molecule, the “Second Scan Tm” value in data set [3] came out at 71 °C.
